This experiment deals with H. pylori urease (UreA and UreB subunits) expressed in E. coli from the urease gene cluster of pILL763 or pILL753 (Helicobacter pylori).

Consider “H. pylori HspB heat shock protein (GroEL-like)”, for which the urease activity (Berthelot reaction) of E. coli co-expressing the urease gene cluster and HspA plus HspB turned out to be 3 fold. With “H. pylori HspA heat shock protein (GroES-like)”, the urease activity (Berthelot reaction) of E. coli co-expressing the urease gene cluster and HspA plus HspB amounted to 3 fold.

The values are drawn from patent US5843460.
